Data taken from the supplement of paper PMC11246515.
± gives the standard deviation of the averaged measurements.

Assay: total protein half-life in vivo (active degradation + dilution); higher = more stable protein
[1] = E. coli NCM3722 delta-clpP delta-lon delta-hslV, growth: N-lim chemostat, doubling time 6 h
[2] = E. coli NCM3722 delta-clpP, growth: N-lim chemostat, doubling time 6 h
[3] = E. coli NCM3722 delta-hslV, growth: N-lim chemostat, doubling time 6 h
[4] = E. coli NCM3722 delta-smpB, growth: N-lim chemostat, doubling time 6 h
[5] = wild type E. coli NCM3722, growth: C-lim chemostat, doubling time 3 h
[6] = wild type E. coli NCM3722, growth: C-lim chemostat, doubling time 12 h
[7] = wild type E. coli NCM3722, growth: N-lim chemostat, doubling time 6 h
[8] = wild type E. coli NCM3722, growth: N-lim chemostat, doubling time 12 h
[9] = wild type E. coli NCM3722, growth: P-lim chemostat, doubling time 6 h
[10] = wild type E. coli NCM3722, growth: P-lim chemostat, doubling time 12 h
[11] = E. coli NCM3722 delta-lon, growth: N-lim chemostat, doubling time 6 h
[12] = wild type E. coli NCM3722, growth: C-lim chemostat, doubling time 6 h

Sequence	total protein half-life in vivo [1] [h]	total protein half-life in vivo [2] [h]	total protein half-life in vivo [3] [h]	total protein half-life in vivo [4] [h]	total protein half-life in vivo [5] [h]	total protein half-life in vivo [6] [h]	total protein half-life in vivo [7] [h]	total protein half-life in vivo [8] [h]	total protein half-life in vivo [9] [h]	total protein half-life in vivo [10] [h]	total protein half-life in vivo [11] [h]	total protein half-life in vivo [12] [h]
MATLFIADLHLCVEEPAITAGFLRFLAGEARKADALYILGDLFEAWIGDDDPNPLHRKMAAAIKAVSDSGVPCYFIHGNRDFLLGKRFARESGMTLLPEEKVLELYGRRVLIMHGDTLCTDDAGYQAFRAKVHKPWLQTLFLALPLFVRKRIAARMRANSKEANSSKSLAIMDVNQNAVVSAMEKHQVQWLIHGHTHRPAVHELIANQQPAFRVVLGAWHTEGSMVKVTADDVELIHFPF	5.85 ± 1.3	5.94 ± 0.2	6.87 ± 0.8	5.781 ± 0.025	3.14 ± 0.045	13.1 ± 0.46	6.36 ± 0.95	12.4 ± 0.57	6.49 ± 0.51	12 ± 0.37	–	–
MATLIRLFIHPVKSMRGIGLTHALADVSGLAFDRIFMITEPDGTFITARQFPQMVRFTPSPVHDGLHLTAPDGSSAYVRFADFATQDAPTEVWGTHFTARIAPDAINKWLSGFFSREVQLRWVGPQMTRRVKRHNTVPLSFADGYPYLLANEASLRDLQQRCPASVKMEQFRPNLVVSGASAWEEDRWKVIRIGDVVFDVVKPCSRCIFTTVSPEKGQKHPAGEPLKTLQSFRTAQDNGDVDFGQNLIARNSGVIRVGDEVEILATAPAKIYGAAAADDTANITQQPDANVDIDWQGQAFRGNNQQVLLEQLENQGIRIPYSCRAGICGSCRVQLLEGEVTPLKKSAMGDDGTILCCSCVPKTALKLAR	5.8 ± 0.31	5.98 ± 1.1	6.18 ± 1.1	5.39 ± 0.28	2.97 ± 0.61	10.1 ± 0.74	5.69 ± 0.15	10.54 ± 0.032	5.71 ± 0.41	10.2 ± 1.8	5.9 ± 0.56	6.03 ± 0.76
MATLLQLHFAFNGPFGDAMAEQLKPLAESINQEPGFLWKVWTESEKNHEAGGIYLFTDEKSALAYLEKHTARLKNLGVEEVVAKVFDVNEPLSQINQAKLA [P0ACX3]	5.41 ± 1.1	3.68 ± 0.39	3.94 ± 0.085	4.07 ± 0.095	3.22 ± 0.24	8.79 ± 2.3	3.27 ± 0.054	5.75 ± 0.85	4.79 ± 0.49	10.1 ± 1.1	5.96 ± 0.17	4.809 ± 0.035
MATLTEDDVLEQLDAQDNLFSFMKTAHTILLQGIRQFLPSLFVDNDEEIVEYAVKPLLAQSGPLDDIDVALRLIYALGKMDKWLYADITHFSQFWHYLNEQDETPGFADDMTWDFISNVNSITRNAMLYDALKAMKFADFSVWSEARFSGMVKTALTLAVTTTLKELTP	4.21 ± 0.82	3.67	2.45	2.07	2.02	4.45 ± 0.14	2.38	4.18	2.29	3.96 ± 1	2.61 ± 0.36	> 8
MATPHINAEMGDFADVVLMPGDPLRAKYIAETFLEDAREVNNVRGMLGFTGTYKGRKISVMGHGMGIPSCSIYTKELITDFGVKKIIRVGSCGAVLPHVKLRDVVIGMGACTDSKVNRIRFKDHDFAAIADFDMVRNAVDAAKALGIDARVGNLFSADLFYSPDGEMFDVMEKYGILGVEMEAAGIYGVAAEFGAKALTICTVSDHIRTHEQTTAAERQTTFNDMIKIALESVLLGDKE [P0ABP8]	5.35 ± 0.52	4.9 ± 0.79	4.26 ± 0.18	4.44 ± 0.086	3.14 ± 0.25	12.6 ± 1.4	4.38 ± 0.34	7.48 ± 0.6	5.65 ± 0.38	13.1 ± 0.34	5.28 ± 0.12	5.99 ± 0.48
MATVPTRSGSPRQLTTKQTGDAWEAQARRWLEGKGLRFIAANVNERGGEIDLIMREGRTTIFVEVRYRRSALYGGAAASVTRSKQHKLLQTARLWLARHNGSFDTVDCRFDVVAFTGNEVEWIKDAFNDHS	6.46 ± 0.81	–	2.03	2.14	–	2.89 ± 0.49	–	–	1.88	3.74	–	2.97
MATYLIGDVHGCYDELIALLHKVEFTPGKDTLWLTGDLVARGPGSLDVLRYVKSLGDSVRLVLGNHDLHLLAVFAGISRNKPKDRLTPLLEAPDADELLNWLRRQPLLQIDEEKKLVMAHAGITPQWDLQTAKECARDVEAVLSSDSYPFFLDAMYGDMPNNWSPELRGLGRLRFITNAFTRMRFCFPNGQLDMYSKESPEEAPAPLKPWFAIPGPVAEEYSIAFGHWASLEGKGTPEGIYALDTGCCWGGTLTCLRWEDKQYFVQPSNRHKDLGEAAAS	4.24 ± 0.43	4.196 ± 0.017	3.52 ± 0.16	3.68 ± 0.14	2.71 ± 0.18	6.99 ± 0.28	4.03 ± 0.15	5.76 ± 0.16	4.83 ± 0.51	9.31 ± 0.91	3.56 ± 0.044	4.718 ± 0.0074
